In patent US20030031667A1 (CELLDEX RESEARCH, published 2003):
Each block holds one binder with its values, some of them ahead of it.

What was measured:
[1] = target: T1, human macrophage mannose receptor (human, UniProt P22897 19-1456); experiment: flow cytometry, hybridoma supernatant on monocyte-derived human dendritic cells
T1 construct: whole, on cells; In the immunoprecipitations it came from cell lysates; also called human B11 antigen; B11 target antigen
T1 sequence (looked up): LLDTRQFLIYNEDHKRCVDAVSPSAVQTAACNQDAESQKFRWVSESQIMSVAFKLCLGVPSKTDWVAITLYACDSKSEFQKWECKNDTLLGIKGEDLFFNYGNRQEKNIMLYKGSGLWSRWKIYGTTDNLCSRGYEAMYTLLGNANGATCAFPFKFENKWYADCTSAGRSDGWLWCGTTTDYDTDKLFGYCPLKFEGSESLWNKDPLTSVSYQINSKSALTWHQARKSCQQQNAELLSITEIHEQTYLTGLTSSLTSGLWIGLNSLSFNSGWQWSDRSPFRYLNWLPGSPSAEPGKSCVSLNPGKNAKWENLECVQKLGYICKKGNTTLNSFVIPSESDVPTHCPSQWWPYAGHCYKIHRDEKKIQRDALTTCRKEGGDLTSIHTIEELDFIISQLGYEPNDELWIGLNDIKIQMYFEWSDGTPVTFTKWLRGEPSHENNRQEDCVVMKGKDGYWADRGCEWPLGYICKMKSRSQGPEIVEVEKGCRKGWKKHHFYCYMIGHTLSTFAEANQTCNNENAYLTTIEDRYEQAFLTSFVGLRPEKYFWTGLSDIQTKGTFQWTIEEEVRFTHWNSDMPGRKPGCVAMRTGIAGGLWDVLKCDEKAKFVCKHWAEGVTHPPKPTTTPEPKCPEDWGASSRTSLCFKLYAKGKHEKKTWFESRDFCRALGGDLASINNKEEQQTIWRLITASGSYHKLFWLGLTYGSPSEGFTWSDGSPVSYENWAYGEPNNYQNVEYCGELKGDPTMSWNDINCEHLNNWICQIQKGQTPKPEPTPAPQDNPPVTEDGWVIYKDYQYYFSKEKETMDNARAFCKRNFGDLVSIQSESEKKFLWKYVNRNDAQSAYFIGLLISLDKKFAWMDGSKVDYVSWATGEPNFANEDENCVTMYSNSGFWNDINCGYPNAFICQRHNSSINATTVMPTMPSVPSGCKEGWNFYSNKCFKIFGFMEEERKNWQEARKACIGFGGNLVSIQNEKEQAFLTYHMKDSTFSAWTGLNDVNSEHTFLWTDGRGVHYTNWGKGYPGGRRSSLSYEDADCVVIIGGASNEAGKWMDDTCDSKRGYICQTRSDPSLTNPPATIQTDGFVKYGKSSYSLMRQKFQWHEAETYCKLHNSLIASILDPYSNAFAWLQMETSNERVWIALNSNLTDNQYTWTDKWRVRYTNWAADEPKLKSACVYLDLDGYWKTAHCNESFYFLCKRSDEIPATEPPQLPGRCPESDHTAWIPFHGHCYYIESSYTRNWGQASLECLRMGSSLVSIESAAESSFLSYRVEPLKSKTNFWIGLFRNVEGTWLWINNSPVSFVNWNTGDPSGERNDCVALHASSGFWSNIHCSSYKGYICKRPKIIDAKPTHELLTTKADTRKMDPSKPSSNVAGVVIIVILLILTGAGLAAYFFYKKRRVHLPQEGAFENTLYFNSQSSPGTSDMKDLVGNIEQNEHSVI
Procedure: The hybridomas secreting human IgG were tested for reactivity with various types of blood cells by flow cytometry. Dendritic cells were prepared from adherent mononuclear cells by culturing for 5-7 days in media supplemented with GM-CSF and IL-4. Granulocytes (PMN), monocytes and lymphocytes were obtained from heparanized whole blood. The cells were incubated with hybridoma supernatants from IgG-positive clones at 4° C. Binding was detected with a FITC-labeled goat anti-human IgG(Fc) probe. The cell associated fluorescence was determined by analysis using a FACScalibur instrument.

[2] = target: T1, human macrophage mannose receptor; experiment: flow cytometry on monocyte-derived dendritic cells, anti-human IgG-F(ab')2-PE probe
Procedure: The reactivity of F(ab′)2 fragments of human monoclonal antibody B11 with dendritic cells from human tissues was evaluated by flow cytometry.
F(ab′)2 fragments were prepared by digestion of purified B11 mAb with pepsin under standard conditions. The F(ab′)2 fragments were purified by protein L chromatography. Dendritic cells, prepared fresh from human monocytes by culture in GM-CSF and IL-4, were incubated with whole antibody or F(ab′)2 antibody fragments for 1 hour at 4° C. The cells were washed before incubation with anti-human IgG-F(ab′)2-PE probe for 1 hour at 4° C. The cells were washed again prior to analysis using a FACScalibur instrument and Cellquest software.

binding result [1]: binds
B1: human monoclonal antibody B11 (antibody, human IgG1, V domains shown)
VH: EVQLVQSGAEVKKPGESLRISCKGSGDSFTTYWIGWVRQMPGKGLEWMGIIYPGDSDTIYSPSFQGQVTISADKSISTAYLQWSSLKASDTAMYYCTRGDRGVDYWGQGTLVTVSS
VL: DIQMTQSPSSLSASVGDRVTITCRASQGISRWLAWYQQKPEKAPKSLIYAASSLQSGVPSRFSGSGSGTDFTLTISGLQPEDFATYYCQQYNSYPRTFGQGTKVEIK
notes: Human IgG1 kappa from a HuMAb mouse hybridoma; also called B11 HuMab; mAb B11

binding result [2]: binds
B2: F(ab')2 fragments of human monoclonal antibody B11 (other)
VH: B1 VH
VL: B1 VL
notes: See the note of m1 on the VH/VL conflict; also called B11 F(ab')2
